{"source": "patent US20020151006A1", "about": "(ROCKEFELLER UNIVERSITY, published 2002)", "key": {"[1]": {"target": "consolidated ligand NH2-PVpYENVG6>(…ONH2)", "assay": "fluorescence-based titration assay in solution"}, "[2]": {"target": "T1, cleavage product containing the first 567 amino acids of sigma-70 (E. coli, UniProt P00579 1-567)", "T1 construct": "range 1-567; also called ?^70 fragment", "assay": "Ni2+-NTA agarose co-immobilization, SDS-PAGE", "experimental": "(§1) The indicated proteins were loaded onto Ni²⁺-NTA-agarose beads (L) and the unbound protein was removed (F). The beads were extensively washed and the bound protein was eluted with buffer containing 100 mM imidazole (E).\n(§2) A mixture of AsiAHis and recombinant σ⁷⁰ was loaded onto Ni²⁺-NTA agarose beads (lane 4) and the unbound material removed (lane 5). The beads were subsequently washed with 10 mM imidazole buffer and then eluted with 100 mM imidazole buffer."}, "[3]": {"target": "T2, E. coli RNA polymerase sigma-70 subunit, full-length recombinant (sigma is printed as a garbled character: … (E. coli, UniProt P00579 1-613))", "T2 construct": "range 1-613; also called full-length ?^70; recombinant ?^70", "assay": "Ni2+-NTA agarose co-immobilization, SDS-PAGE", "experimental": "as §1, §2"}, "[4]": {"target": "T3, semisynthetic 600 amino acid-long sigma-70 derivative (ligation product of sigma-70 1-567 with the synthetic … (E. coli, UniProt P00579 1-567; P00579 568-600)", "T3 construct": "range 1-567;range 568-600; also called semisynthetic ?^70", "assay": "Ni2+-NTA agarose co-immobilization, SDS-PAGE", "experimental": "as §1, §2"}}, "data": [{"molecule": "Abl-[G^120C^121][SH2-^15N]SH(32), the ligation product of the Abl-SH3 and Abl-SH2 domains (from UniProt P00519 65-220)", "values": [{"measurement": "Kd", "setting": "[1]", "result": 300, "unit": "nM"}]}, {"molecule": "bacteriophage T4 antisigma protein AsiA with a C-terminal hexahistidine tag (other, also called AsiAHis; AsiAHIS) MNKNIDTVREIITVASILIKFSREDIVENRANFIAFLNEIGVTHEGRKLNQNSFRKIVSELTQEDKKTLIDEFNEGFEGVYRYLEMYTNKHHHHHH", "values": [{"measurement": "binding result", "setting": "[2]", "result": "no binding"}, {"measurement": "binding result", "setting": "[3]", "result": "binds"}, {"measurement": "binding result", "setting": "[4]", "result": "binds"}]}]}
